The results in this text go back to patent US20090042209A1 (NOX TECHNOLOGIES, published 2009).

In this test the target is T1, albumin (serum) (human, UniProt P02768 25-609).
T1 construct: Present in the serum sample on the 2-D blot; also called unreactive albumin
Nature of the test: 2-D gel electrophoresis immunoblot of pooled cancer sera, scFv with anti-S alkaline phosphatase detection. The source says:
FIG. 1 provides the results of analytical 2-D gel electrophoresis of ECTO-NOX enriched serum proteins from a preparation of sera pooled from cancer patients (breast, ovarian, lung and colon) concentrated by nickel agarose precipitation, followed by immunoblots analysis. Separation in the first dimension was by isoelectric focusing and in the second dimension by SDS-PAGE (using ampholytes over the pH range of 3 to 10 and 10% polyacrylamide gel). For interpretative purposes, the gel is divided into quadrants I-IV with unreactive albumin (albumin) at the center. Detection was with recombinant anti-tNOX single chain variable region (scFv) antibody (MAB 12.1 scFv) carrying an S-tag followed by alkaline phosphatase-liked anti S (Novagen cat. # 69598-3 or equivalent product) with Western Blue NBT substrate (Promega, Madison, Wis; Cat. No. S3841 or equivalent product). Reactive proteins appear reddish blue.

T1 sequence (P02768 25-609 limits assumed): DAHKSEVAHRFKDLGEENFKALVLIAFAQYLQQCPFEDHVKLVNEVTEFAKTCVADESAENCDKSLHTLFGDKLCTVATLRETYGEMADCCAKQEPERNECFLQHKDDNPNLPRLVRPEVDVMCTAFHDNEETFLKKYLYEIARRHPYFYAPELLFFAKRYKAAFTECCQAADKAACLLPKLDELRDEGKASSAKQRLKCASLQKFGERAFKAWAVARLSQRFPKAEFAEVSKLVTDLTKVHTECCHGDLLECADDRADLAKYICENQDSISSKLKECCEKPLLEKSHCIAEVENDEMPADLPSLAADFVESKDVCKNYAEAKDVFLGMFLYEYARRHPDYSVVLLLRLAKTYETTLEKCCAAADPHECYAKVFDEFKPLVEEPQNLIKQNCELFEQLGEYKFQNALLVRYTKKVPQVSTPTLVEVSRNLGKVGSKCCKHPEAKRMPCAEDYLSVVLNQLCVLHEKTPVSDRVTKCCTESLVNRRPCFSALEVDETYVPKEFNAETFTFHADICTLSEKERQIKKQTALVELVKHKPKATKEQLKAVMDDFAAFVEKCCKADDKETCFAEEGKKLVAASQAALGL

B1: recombinant anti-tNOX single chain variable region (scFv) antibody (MAB 12.1 scFv) carrying an S-tag (scFv)
scFv: EVKLQESGTEVVKPGASVKLSCKASGYIFTSYDIDWVRQTPEQGLEWIGWIFPGEGSTEYNEKFKGRATLSVDKSSSTAYMELTRLTSEDSAVYFCARGDYYRRYFDLWGQGTTVTVSSGGGGSGGGGSGGGGSENVLTQSPAIMSASPGERVTMTCSASSSIRYIYWYQQKPGSSPRLLIYDTSNVAPGVPFRFSGSGSGTSYSLTINRMEAEDAATYYCQEWSGYPYTFGGGTKLELKAKETAAAKFERQHMDS
notes: Expressed in E. coli from pET11-ScFv(S) and renatured from inclusion bodies; also called ScFv(S); NTI ScFv MAB 12.1
For the molecule B1, the binding result is “no binding”.
